Values of other authors as cited in PMC7785802, “Therapeutic Efficacy of a Trichinella Spiralis Paramyosin-Derived Peptide Modified With a Membrane-Targeting Signal in Mice With Antigen-Induced Arthritis” (Frontiers in Microbiology, 2020).
Like-named read-outs stand apart in the source and are kept apart here.

Test system: antigen-induced arthritis (AIA)
Settings: intraarticular injection prior to disease onset or at disease flares, animal models, Williams et al., 2004, Durigutto et al., 2013
Description: As MAC is a therapeutic target in RA, complement inhibitors have shown potential for preventing and treating arthritis in animal models (Goodfellow et al., [2000]; Durigutto et al., [2013]). Moreover, local or targeted inhibition might be an effective way to circumvent the adverse effects of systemic complement inhibition. […] More precisely, intraarticular injection of membrane-targeted CD59 or Fc fusio ... || RA is an autoimmune disease that has been confirmed to involve inappropriate complement activation in the joint cavity, making the delivery of anti-complement drugs into the joint cavity an ideal therapeutic strategy to relieve RA progression (Dijkstra et al., [2019]). […] Murine AIA, a well-recognized acute complement-dependent arthritis, imitates the pathology of RA (van den Berg et al., [2007]). As complement activation is involved in the process of AIA, this model has been utilized in many studies to assess the therapeutic efficacy of complement inhibitors that might affect various stages of complement activation. In animal models, intraarticular injection of complement inhibitors (including sCR1, CD59, and anti-C5 neutralizing recombinant mini-antibody) prior to ...

B1: CD59: a heavily glycosylated protein of 20 kDa that can specifically inhibit MAC formation (protein, UniProt P13987 26-102, looked up)
CD59 glycoprotein: LQCYNCPNPTADCKTAVNCSSDFDACLITKAGLQVYNKCWKFEHCNFNDVTTRLRENELTYYCCKKDLCNFNEQLEN
effect on joint swelling and development of AIA (ref Goodfellow et al., 2000): alleviate joint swelling and the development of AIA
effect on joint swelling and development of AIA (ref Harris et al., 2002): alleviate joint swelling and the development of AIA
